Experimental findings from article PMC5040827 are described below.

Bounds are passed on as bounds.

Experiment in all cases: SPR
For orientation: In SPR one partner is held on a chip, and binding of the other changes the refractive index at the surface.

For one test, the target named is GL_(CDR3rev4). The following applies: average of two or three experiments.
A further test concerns the target PGT121. As to conditions: average of two or three experiments.
The target in another test is MD39-10MUT.

With “BG505 T332N gp120 3MUT (T135A; T139I; one further mutation not printed)”, in the test with GL_(CDR3rev4), the Kd is more than 28000 nM.
Regarding “BG505 T332N gp120 5MUT (V134Y; N136P; I138L; D140N; one further mutation not printed)”, the Kd was 5.7 nM with PGT121 and more than 34000 nM with GL_(CDR3rev4).
Turning to “BG505 T332N gp120 7MUT (T135A; T139I; V134Y; N136P; I138L; D140N; one further mutation not printed)”, the Kd in the test with GL_(CDR3rev4) is more than 36000 nM.
In the test with GL_(CDR3rev4), “BG505 T332N gp120 10MUT (T135A; T139I; V134Y; N136P; I138L; D140N; N137F; T320F; Q328M; one further mutation not printed)” registered a Kd of more than 150000 nM.
On to PGDM1400, for which the Kd with MD39-10MUT worked out at 6 nM.
In the test with MD39-10MUT, PGT121 yielded a Kd of 0.8 nM. This Kd is about 7.5-fold lower than that of the substance before.
On the same count and under the same terms, the value for PGT128 was 3 nM; that for PGT151 was 35 nM.
In the test with MD39-10MUT, VRC01 had a Kd of 142 nM.

What is called Kd is the free concentration of one partner at which half of the binding sites on the other are occupied at equilibrium, for simple one-to-one binding. A higher Kd goes with weaker binding.
